Measured values taken from US20180244785A1 (MERRIMACK PHARMACEUTICALS, published 2018).
Substitutions are numbered along the chain they refer to.

T1: 6His-Fc-FGFR1c (human, UniProt P11362 141-376)
T1 construct: not shown: 6His tag and Fc as named in '6His-Fc-FGFR'
T1 sequence: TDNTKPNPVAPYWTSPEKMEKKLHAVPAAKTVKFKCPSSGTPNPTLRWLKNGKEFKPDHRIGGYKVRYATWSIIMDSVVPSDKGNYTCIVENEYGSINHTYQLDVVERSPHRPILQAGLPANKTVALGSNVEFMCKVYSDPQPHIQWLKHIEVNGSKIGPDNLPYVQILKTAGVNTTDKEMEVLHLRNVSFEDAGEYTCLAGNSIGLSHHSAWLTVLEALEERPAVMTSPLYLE

T2: 6His-Fc-FGFR4 (human, UniProt P22455 144-369)
T2 construct: not shown: 6His tag and Fc as named in '6His-Fc-FGFR'
T2 sequence: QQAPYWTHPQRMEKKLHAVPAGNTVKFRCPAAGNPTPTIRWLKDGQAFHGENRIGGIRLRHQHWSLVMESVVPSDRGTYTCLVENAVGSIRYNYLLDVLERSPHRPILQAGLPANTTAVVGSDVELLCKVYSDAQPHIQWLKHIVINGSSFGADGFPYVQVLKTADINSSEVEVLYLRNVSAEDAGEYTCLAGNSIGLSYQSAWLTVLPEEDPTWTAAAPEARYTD

B1: Ab16 (antibody, human IgG2, kappa, V domains shown)
VH: EVQLLESGGGVVQPGRSLRLSCAASGFTFSSYAMHWVRQAPGKGLEWVAVISYDGSNKYYADSVKGRFTISRDNSKNTLSLQMNSLRVEDTAIYYCVRGAGRGYTRGPDGFDIWGQGTMVTVSS
VL: DIVMTQTPLSLSVTPGQPASISCKSSRSLLHSDGKTYVYWYVQKSGQPPQLLIYELSNRFSGVPDRFSGSGSRTDFTLKISRVEAEDVGVYYCMQYIEAPLTFGGGTKVEIKR
notes: format in the assays not spelled out
B2: Ab34 (antibody, human IgG2, kappa, V domains shown)
VH: B1 VH
VL: B1 VL with K24T, I97V
notes: as for B1
B3: Ab31 (antibody, human IgG2, kappa, V domains shown)
VH: B1 VH with Y104L, R106Y
VL: B1 VL with K24T, I97V
notes: as for B1
B4: Ab32 (antibody, human IgG2, kappa, V domains shown)
VH: B1 VH with R102L, Y104F, R106Y
VL: B1 VL with K24T, I97V
notes: as for B1
B5: Ab29 (antibody, human IgG2, kappa, V domains shown)
VH: B1 VH with R102L, Y104W, T105P, R106Y
VL: B1 VL with K24T, I97V
notes: as for B1
B6: Ab27 (antibody, human IgG2, kappa, V domains shown)
VH: B1 VH with R106L
VL: B1 VL
notes: as for B1
B7: Ab21 (antibody, human IgG2, kappa, V domains shown)
VH: B1 VH with R102L, Y104W, T105P, R106Y
VL: B1 VL
notes: as for B1
B8: Ab25 (antibody, human IgG2, kappa, V domains shown)
VH: B1 VH with R102L, Y104F, R106Y
VL: B1 VL
notes: as for B1
B9: Ab65 (antibody, human IgG2, kappa, V domains shown)
VH: B1 VH with T105P, R106Y
VL: B1 VL with K24T
notes: as for B1
B10: Ab88 (antibody, human IgG2, kappa, V domains shown)
VH: B1 VH with Y104L, R106Y
VL: B1 VL with V38L
notes: as for B1
B11: Ab82 (antibody, human IgG2, kappa, V domains shown)
VH: B1 VH with R102L, Y104F, T105P, R106F
VL: B1 VL
notes: as for B1
B12: Ab72 (antibody, human IgG2, kappa, V domains shown)
VH: B1 VH with R102M, Y104L, R106Y
VL: B1 VL
notes: as for B1
B13: Ab89 (antibody, human IgG2, kappa, V domains shown)
VH: B1 VH with Y104F, T105P, R106Y
VL: B1 VL with K24R, A99V
notes: as for B1
B14: Ab76 (antibody, human IgG2, kappa, V domains shown)
VH: B1 VH with T28D, S30A, S31G, Y104L, R106Y
VL: B1 VL
notes: as for B1
B15: Ab83 (antibody, human IgG2, kappa, V domains shown)
VH: B1 VH with Y104F, T105P, R106Y
VL: B1 VL
notes: as for B1

What follows are binders tested against FGFR1 on tumour cells (UniProt P11362 22-822) (assay: cell-based or functional assay).
Sequence of FGFR1 on tumour cells (P11362 22-822): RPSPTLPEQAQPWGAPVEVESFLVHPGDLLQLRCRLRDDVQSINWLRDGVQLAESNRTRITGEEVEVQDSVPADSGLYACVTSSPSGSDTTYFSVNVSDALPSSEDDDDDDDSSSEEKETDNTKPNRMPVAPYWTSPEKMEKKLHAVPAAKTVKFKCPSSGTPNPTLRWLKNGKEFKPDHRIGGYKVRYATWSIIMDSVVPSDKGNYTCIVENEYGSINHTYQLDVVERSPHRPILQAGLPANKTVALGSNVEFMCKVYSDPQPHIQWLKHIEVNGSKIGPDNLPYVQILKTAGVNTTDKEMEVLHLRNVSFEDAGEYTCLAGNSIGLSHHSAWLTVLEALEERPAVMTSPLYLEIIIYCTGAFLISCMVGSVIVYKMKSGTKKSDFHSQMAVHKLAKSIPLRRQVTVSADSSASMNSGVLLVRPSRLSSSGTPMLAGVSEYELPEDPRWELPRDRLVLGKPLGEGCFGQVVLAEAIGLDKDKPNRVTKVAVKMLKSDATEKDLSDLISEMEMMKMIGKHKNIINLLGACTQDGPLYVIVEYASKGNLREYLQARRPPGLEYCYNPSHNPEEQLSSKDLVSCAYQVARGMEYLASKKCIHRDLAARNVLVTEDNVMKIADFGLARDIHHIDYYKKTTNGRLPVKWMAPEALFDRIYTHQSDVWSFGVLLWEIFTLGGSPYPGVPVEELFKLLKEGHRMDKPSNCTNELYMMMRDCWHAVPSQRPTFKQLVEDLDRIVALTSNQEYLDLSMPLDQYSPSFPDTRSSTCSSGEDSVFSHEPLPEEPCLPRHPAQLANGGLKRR

In order of falling “IC50 of pERK inhibition (AlphaScreen SureFire) in NCI-H1581 cells” value:
1. B2  4.83 nM
2. B1  3.88 nM
3. B3  2.72 nM
4. B4  2.55 nM
5. B6  1.77 nM
6. B8  1.64 nM
7. B7  1.31 nM
8. B5  0.54 nM

Each binder was assayed against T1, 6His-Fc-FGFR1c (assay: competition ELISA, blocks 6His-Fc-FGFR1c binding to coated FGF2).
Method: (§1) ELISA plates were coated with 50 ug/ml Heparin Sulfate (HSPG) (Sigma Aldrich) and incubated overnight at room temperature. Plates were then washed extensively with PBS containing 0.05% v/v Tween20 (PBST). Plates were then blocked with 2.5% BSA in PBST for one hour and washed extensively as before. 40-60 μL of FGF1 or FGF2 was then added to each well at 40 μg/ml and allowed to bind at room temperature for 2 hours. Plates were then washed extensively with PBST as before. Stock solutions of each 6His-Fc-FGFR (FGFR1-4) were prepared at 500 ng/ml in 2% v/v BSA-PBST and each antibody was prepared as a 2×-dilution series in 2% v/v BSA-PBST. Antibodies dilution series and 6His-Fc-FGFR1-4 were diluted in a 1:1 fashion and immediately added to the relative wells of the plate and allowed to bind for 2 hours at room temperature. Plates were washed extensively as before with PBST and the remaining fraction of bound 6His-Fc-FGFR was detected using a polyclonal-anti-His-6-HRP conjugated antibody (Abcam) for one hour at room temperature. After extensive washing with PBST, 50 μl of Pierce Chemiluminescent substrate (Thermo Fisher Scientific, Rockford, USA) was added and plates were measured on an Envision plate reader (Perkin Elmer). Raw data was background corrected and plotted using Prism software. […]

In order of rising IC50:
1. B12  1.77 nM
2. B11  2.7 nM
3. B9  3.18 nM
4. B5  4.19 nM
5. B4  4.29 nM
6. B8  4.95 nM
7. B3  5.21 nM
8. B2  5.23 nM
9. B6  5.45 nM
10. B7  5.54 nM
11. B1  6.28 nM
12. B14  6.3 nM
13. B10  8.02 nM
14. B15  9.23 nM
15. B13  11.1 nM

What follows are binders tested against T2, 6His-Fc-FGFR4 (assay: competition ELISA, blocks 6His-Fc-FGFR4 binding to coated FGF2).
Method: as §1

In order of falling IC50:
1. B15  154 nM
2. B1  40.1 nM
3. B14  37.3 nM
4. B6  30.1 nM
5. B13  27.4 nM
6. B3  22.2 nM
7. B10  19 nM
8. B2  14.3 nM
9. B9  13.4 nM
10. B12  11.6 nM
11. B8  11.6 nM
12. B4  11.5 nM
13. B11  10.4 nM
14. B7  9.96 nM
15. B5  5.41 nM
